According to the supplement of paper PMC9170038:

System: K4 kissing-loop RNA reporter
Assay: apparent KD of K4 kissing-loop reporter; higher = weaker reporter binding
Conditions: Eterna round: R107
Experimental: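 RNA-MaP round R107: designed RNA switches with theophylline, tryptophan, arginine or FMN aptamers are transcribed on-chip within common flanks. They are titrated with a labelled K4 kissing-loop RNA reporter in RNA-MaP buffer (100 mM Tris pH 7.5, 80 mM KCl, 4 mM MgCl2), without ligand or with the indicated ligand. Median apparent KD per design.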

[1] = input ligand: theophylline 20 uM
[2] = input ligand: tryptophan 2.4 mM
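Note: bound reporter read as fluorescence of individual clusters on recovered sequencing chips by microscopy, with normalized cluster intensities fitted with a binding model.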

| Sequence | apparent KD of K4 kissing-loop reporter (input ligand: FMN 200 uM) [nM] | apparent KD of K4 kissing-loop reporter (input ligand: arginine 13.2 mM) [nM] | apparent KD of K4 kissing-loop reporter (input ligand: none) [nM] | apparent KD of K4 kissing-loop reporter [1] [nM] | apparent KD of K4 kissing-loop reporter [2] [nM] |
| --- | --- | --- | --- | --- | --- |
| UAUGAAGGUGGAGGAUAUUGAUUGAGCCUUGGUCAGGAGUGAUGUUCCGGGAAGCCUUGGGUUCAUCGAGAAGGCCAAGGAUAGU [#09 K4 FMN B Same State] | 151 | 209 | 221 | 274 | 232 |
| UUGCCUUUGAGCGAUACCAGCAGCGUCGGCCUUAGAUUGGGAGGCAUGGCAAGUGAUGUUUGCCCUUGGCAGCGCGUAUAGUACA [theeternabot_exclusion_KL_Theo_B_7] | 197 | 320 | 459 | 439 | 219 |
| GGUAGCAUGGCGGCCGCCACUUUAUACUCGGUCGUUGGCGUCGUAAGUGAUGUUUACAUUCGCAAAAGGACCGGGCCAUGCUACC | 97.8 | 56.6 | 81.2 | 123 | 133 |
| GCUAAGGAGUGAUGUUCCAAGUGAUGUUAACGAGGACCGGUACGGCCGCCACUCGAUACGGCCGGAAAGUAAGAUAAACUACAGU [Same State - Tryptophan A (Freestyle 4)] | 77.5 | 59.8 | 77.1 | 75.8 | 64.7 |
| UAUAGAGUGACGGCCGCCACUAUUGUGAUUUAAUUGUUUGAGUGAUGUUUUGAUGUUUGAUUUUGUAGGACCGGGUUAUAUGUUA [zdzzmullin] | 959 | 718 | 987 | 793 | 788 |
| UGAUACCAGACGGCCGCCACUCCCGCAGGUCAAAGACCUGCGAAGAAGGUUUUUUAGUGAUGUUGGAGGACCGGGUCUGGUAUCU [FiskerMod 20 - Jieux - Exclusion - Tryptophan B] | 311 | 92.6 | 257 | 140 | 689 |
| UCCUGCAAUCGACCACGAAAGUGGAUCGAUACCAGAGUCGAAAGACUCCCUUGGCAGCGAGUGAUGUUCGAGCAGGUAAAAUAAA [#SwitchBubble 23 #K4Late] | 713 | 461 | 446 | 406 | 486 |
| GAUAUAUAUAGAGGAUAUAGCAGGUGAUACAAGAAAGUGAGUGAUGUUUAUGUAGAUGAUGAUAUGUUAGAAGGCUAUAUAUAUC [radioactive7-modED1598] | 844 | 736 | 766 | 723 | 706 |
| AGCCACGACGCGGCCGCCACUGCCAUUAAACGUAAGGCAAAUCUAAUCUUCGAGUGAUGUUCGGGCAGGACCGGGCGGAGACUUG [theeternabot_sameState_KL_Trp_B_18] | 636 | 300 | 478 | 772 | 371 |
| UCAUCAUGAUGGUAGUAACCGCAUUGGGAGCGAGGACCGGUACGGCCGCCACUCGAAAUGUACAUAGCAGUAGUGAUGUUGCUGC [theeternabot_sameState_KL_Trp_A_47] | 134 | 125 | 121 | 116 | 115 |
| UGGAGUUGACGAAAAGUCAACUCCUGAGAAGGAGCGCACGAAAGUGCAGGUAGGUCGCUCUACCAGUGAUGUUGGUACUUAAUAA [#OpenEnded 6] | 92.1 | 170 | 117 | 162 | 84.5 |
| GAGGUGCUGAUGCGGUGGCCGGUGGUCGUGCGAGGACCGGUACGGCCGCCACUCGCAUGAGUGAUGUUCAUGUGUCGUCGUCGUC [whbob_EX_Tryp_A_t3] | 172 | 104 | 132 | 117 | 172 |
| CUCUUCUUUCUUUUAGUGAUGUUAAAUUAGCGAGGACCGGUACGGCCGCCACUCGUAUAGCUGGAAUGACUGUGCGAGGGUUUGU | 960 | 514 | 905 | 522 | 790 |
| GCCAGAGCGCGAAGGAGCGCCCUGACAGGUUGCUGCCGUGGGCAGUGAUGUUGCUCAGUCCGGCAGGUAGGUCGCGUGCUCUGGC | 222 | 165 | 193 | 196 | 174 |
| GGCAGUGAUGUUGCCUUCGCAAUGCAUGCAGAGGAUAUUCGUUUGGGAAGAAGGCUGCAGCGUUCUCUCGAGUGAUGUUCGGGUG [Same State FMN A GF 19] | 130 | 168 | 195 | 181 | 177 |
| AGUGUUAGGUUAGAUACCAGCCGUCUGUAGAUAAUCCUCAGACCGCCAGUGAUGUUGGCAGGCCCUUGGCAGCUAACAGAACAGA [Orbediqu] | 238 | 206 | 210 | 154 | 214 |
| AGAUGUUUAGCUCAAAGAACGAAAAUGGAAGGAGCGUGCGAAAGCACAGGUAGGUCGCCAGUGAUGUUGGAACCUGAGCAUCAAA [#SwitchBubble 16 #K4Late] | 316 | 274 | 262 | 244 | 230 |
| GGUCCACGCCAUGCCAGUGAUGUUGGUAAGCGAGGACCGGUACGGCCGCCACUCGUUCAAUACCGUAUCGCCCAUAACCUGGAGA [Oneseror] | 113 | 89.1 | 104 | 96.5 | 118 |
| CAUCUGGACCAAGGAUAUGUGGGCAUAAUAAAAUUACCACCUUAUUUGCAGUAAGUGAUGUUUAACACAGAAGGUGGACAUAGAC [theeternabot_exclusion_KL_FMN_B_10] | 1170 | 725 | 1170 | 701 | 822 |
| GAAUCAUGUAGAAGGAGCGUUAGAAGUUAUAGGGAUGAGUGAUGUUUGUGUUAGUAAAUCUGACAGGUAGGUCGCUACAGAAGGA [KL-SSArg B21 #analogue] | 712 | 258 | 607 | 132 | 308 |
| GGCUCCUACGCAGGAUAUAGUAGCCGAGAGUGAUGUUCUACGGCGUUUGCCGAUUUAGUCACAGAUCUAGAAGGGUGUAGGAGCC [XFMN-B PiClone] | 1040 | 660 | 1130 | 756 | 1000 |
| AUUCGUUUUUGUGAUACCAGACAUGUGAGUGAUGUUUACAUAUAUAUUUAAUAUUUAGCUGUCCCUUGGCAGCACUGUUUAUUUA [JR_ExcTheophyB_Sub003] | 343 | 384 | 393 | 444 | 291 |

| Sequence | apparent KD of K4 kissing-loop reporter (input ligand: FMN 200 uM) [nM] | apparent KD of K4 kissing-loop reporter (input ligand: arginine 13.2 mM) [nM] | apparent KD of K4 kissing-loop reporter (input ligand: none) [nM] | apparent KD of K4 kissing-loop reporter [1] [nM] | apparent KD of K4 kissing-loop reporter [2] [nM] |
| --- | --- | --- | --- | --- | --- |
| CGCAGUGAUGUUGCUAUAUUUCUUGAUUAACGAGGACCGGUACGGCCGCCACUCGAUUUCUCUCUAAUCCACUAUGUUGUUUAGA [JR_SSTryptoA_Sub002] | 390 | 472 | 506 | 524 | 319 |
| AAAAUAAUCCAGUGAUGUUGGUAACCAGAUACCAGCGACGAAAGUCGCCCUUGGCAGCUGUGGACGUACAAAAUAAGUACGUCCU | 344 | 415 | 441 | 358 | 312 |
| UAGAAGAGAAGCGAUACCAGCGAAUGAAGAAGAUGAUGAAGCCAGUGAUGUUGGAAAGAACGCCCUUGGCAGCGCAAGAGAAGAU | 119 | 163 | 107 | 175 | 83.2 |
| UGUGAACAAAAGUAGAGUGGACCACUAUAGCGAGGACCGGUACGGCCGCCACUCGUACAUGAAUUCAGUGAUGUUGAAAUGAGCU [whbob_EX_Tryp_A_t14] | 234 | 360 | 334 | 426 | 213 |
| GCGCCGGUCUGCUUUAGAGUGAUGUUCUCCCGAGGACCGGUACGGCCGCCACUCGGCCAACGCUAUUAUCUUUGAUCCGCGGUGC [theeternabot_exclusion_KL_Trp_A_41] | 1300 | 840 | 1000 | 1120 | 948 |
| AGUAUGUAAUAUGGCAUAUUUAGAACUGAAGGAGCGCCGAAUAAGGCAGGUAGGUCGCGGUUUUAUGAGUGAUGUUCUUGUUUAA [KL-SSArg-A24] | 156 | 125 | 149 | 329 | 111 |
| CGCCACAACUGAAGGAGCGCGCCAGUGAUGUUGGACGGCUUCGUCAAGGAAACUGCACCGGUGCAGGUAGGUCGCAGUGCGUGGU [Eranarve] | 186 | 164 | 204 | 162 | 195 |
| ACAGUUGCUAGUGAUACCAGACUAGCACUACGUAGUAUGUCAAGUGAUGUUUGACAACUAGUCCCUUGGCAGCGCGAUACGACUG [#12 K4 Theophylline B Same State] | 181 | 152 | 170 | 136 | 169 |
| GGAUAGGACAGAGGAUAUUGGUAGUGAUGUUACCAAAUAAAUAAACAGUCUACAAAGUAGGCUGACCAAGAAGGCUGUCCUAUCG [FmnBX 24 #SwitchBubble #StaticStem #Palindromic] | 226 | 79.1 | 85.2 | 80.1 | 74.7 |
| CGUUUCUCUGUCGAUACCAGCUUCAGUUGGCGGCCAGUGAUGUUGGUAUCGCCGAUGCCAAGCCCUUGGCAGCGACAUGAGACCC [Gezausin] | 169 | 163 | 193 | 128 | 166 |
| AUUAAUUUCAGAGGAUAUCGUUAUUUUUUUUAUUUUAUUCAUUUAUGCAGUGAUGUUGCUAUUAUUCGAGAAGGCUGAUUUAUAA [JR_ExcFMNB_Sub005] | 97.9 | 126 | 62.9 | 146 | 74.1 |
| AGGAUGUAGUGAUGUUAUAUAAGAAGUAAACGAGGACCGGUACGGCCGCCACUCGAAACGGCUACUAGCGCGUUGCGAGGUGUGC [ExTryptoA.Cf] | 425 | 475 | 808 | 510 | 402 |
| UUUAAAUAUAGUGAUGUUAUAUAACAAUGACGAGGACCGGUACGGCCGCCACUCGAGAGAGAUAAUGAUAAAAUACAUAAUUUUC [AstrosSSTrypA#2] | 668 | 746 | 806 | 709 | 474 |
| AAAAUAAACCAGUGAUGUUGGUGUCCAGAUACCAGCGAUAAAAGUCGCCCUUGGCAGCUGUGGACGUACAAAAUAAGUACGUCCU [MatMod 2 - Jieux - Same State - Theophylline A] | 703 | 533 | 872 | 529 | 678 |
| CUGACUCAAUAGUCAGUGAUGUUGACUGGACGAGGACCGGUACGGCCGCCACUCGAGAGUGGUGUAAAAUAUGUCACAGAGUCAG [Tryp A SS t3b] | 186 | 194 | 208 | 182 | 200 |
| CCAUCGCUAUUCGAUACCAGCUCCUUAGUGAUGUUAAGGUUUUACCCUCUGUAGGAGGGAAGCCCUUGGCAGCGAGUAGUGAUGG [#03 K4 Theophylline B Same State] | 1270 | 802 | 948 | 623 | 1370 |
| UGAUACCAGACUGAUACCAGCCAGUGAUGUUGGCAAUAACCAAGGCGAGUCAAAGACUCGGGCCCUUGGCAGCAGUCUGGUAUCU [TheoBX 6 #SwitchBubble #StaticStem] | 134 | 150 | 133 | 143 | 136 |
| UUUGAAAUGUCUGAUACCAGAGAAAAUAUAUGUAGUGAUGUUAUAUACAAAUUUAAUAAGCUCCCUUGGCAGCAGUAUGAAUUUU [AstrosExc-TheB#14] | 593 | 717 | 796 | 748 | 582 |
| AGCGUCCCUACGGCCGCCACUGGGAGUGAUGUUCCCAGGUUAGGCCUGAGGAUACUAUGGAUCGCCAGGACCGGGUAGCGACCAA [Zaarin] | 93.4 | 71.8 | 85.4 | 97.2 | 83.5 |
| CGCCGGAAGGCGAGCGCUCCCACUCCGGAAGGAGCGCCCGGAAGGGCAGGUAGGUCGCCGGAGUGAUGUUCCGGUGGAGGGCUCG [#2 Exclusion - Arginine A Attempt #11 (Inspired by Omei)] | 171 | 58 | 164 | 99.3 | 99.9 |
| GGAUAGGAUAGAGGAUAUGGGUUAGGCAAGAAUAACUUGUCUAGUAAAUCCAUGAGGAGUGAUGUUCCAGAAGGCUGUCCUAUCG [MatMod 4 - Jieux - Exclusion - FMN B] | 429 | 125 | 117 | 127 | 98.3 |
